Laboratory results reported in patent US9187762B2, “Compositions and methods comprising sequences having hydroxyphenylpyruvate dioxygenase (HPPD) activity” (PIONEER HI-BRED INTERNATIONAL, INC., priority 2010, dated 2015).
Substitutions are numbered along the chain they refer to. In names and notes the source's numbering stands. Values belong to the molecule of their own block, whether it stands above or below them.

How the values were obtained:
S. bicolor HPPD [1] = test: ON/OFF rate ratio insensitivity parameters of HPPD with maize motif substitutions; type: biochemical, Sorghum bicolor; details: sorghum HPPD
Protocol: (§1) [formula] Higher KD (reduced affinity or increased insensitivity) can be attained with a numerically smaller ON rate, a larger OFF rate or both. […] The ratio of the reaction rate with inhibitor to that without inhibitor during the 70 to 90 second interval of the reaction was termed the “ON rate ratio”. […] Incubations with the same concentrations of enzyme but no mesotrione were done in parallel. After 1 hr at room temperature, 5 to 10 ul of the enzyme-inhibitor complex was dispensed into the wells of the assay plate. Reactions were started with the addition of 290 to 295 ul of 25 mM Hepes, pH 7, 2 mM ascorbate, 10 uM FeSO4, 100 uM HPP and 50 nM HGD. The reactions were monitored at 320 nm for 12 min. Reaction velocity accelerates as inhibitor is released from the enzyme until a steady state is reached, during which the reaction velocity is constant. The ratio of the steady state rate in mixtures containing mesotrione (or other herbicidal inhibitor) to the initial velocity of mixtures lacking inhibitor is termed the “OFF rate ratio”. Another parameter to record is the time span required for the reactions with inhibitor to reach the steady state. […] It is not certain that the steady state attained in the OFF rate reactions actually represents an equilibrium where OFF rates are now equal to ON rates. Because substrate and inhibitors bind in the same site, the high concentration of substrate present may competitively trap the inhibitor and prevent it from binding again. To be sure that improvement in ON rates is being taken into account, the ON and OFF rate ratios were multiplied together and the product is termed the “insensitivity parameter”.

S. bicolor HPPD [2] = test: HPPD activity, coupled assay with HGD; substrate saturation kinetics; type: biochemical, Sorghum bicolor; details: sorghum HPPD, wt and improved
Protocol: (§2) HPPD activity was measured by placing an aliquot (e.g., 6 ul) of the substrate HPP at 50-fold the desired final concentration into the wells of a low UV-absorbing assay plate. Reactions were started by adding a mixture (e.g., 294 ul) containing 25 mM Hepes, pH 7, 2 mM ascorbate, 10 uM FeSO4, 1 to 100 uM HPP, 50 nM HGD and 5 to 240 nM HPPD. Absorbance at 320 nm was monitored continuously in a plate-reading spectrophotometer (Spectramax, Molecular Devices).
(§3) The catalytic performance of wild-type HPPD and variants generated by shuffling was assessed by determining the substrate saturation parameters. The Michaelis-Menten kinetics protocol of the Spectramax software was customized for HPP concentrations ranging from 3.33 uM to 100 uM, or up to 1 mM if required. Reaction rates were measured as described above for each concentration of HPP. The software returns values of KM and Vmax using the Lineweaver-Burke transformation of the Michaelis-Menten equation.
(§4) The amino acid substitutions identified during the shuffling and mutagenesis of the maize HPPD gene can be made at analogous positions in other HPPD proteins to improve their insensitivity toward HPPD-inhibiting herbicides. The sequences of native and improved maize HPPD were aligned with those of sorghum (Genbank accession number XP002453359) and soybean (Genbank accession number ABQ96868), and the motif substitutions were designed accordingly, as shown in FIG. 14. The genes designed for improvement were synthesized commercially, inserted into vector pVER7062 and expressed, purified and evaluated as in Example 1.

soybean HPPD = test: HPPD activity, coupled assay with HGD; substrate saturation kinetics (KM, kcat); type: biochemical; details: soy HPPD, wt and improved
Excerpt: HPPD catalyzes the conversion of 4-hydroxyphenylpyruvate (HPP) to homogentisate. See, FIG. 1. […] However, the product of the ensuing reaction in tyrosine metabolism, maleylacetoacetate, absorbs strongly at 320 nm. Furthermore, the enzyme catalyzing that reaction is also a dioxygenase having similar mechanism and buffer requirements as HPPD, making homogentisate dioxygenase (HGD) an ideal partner in a coupled assay, as shown.
The HDG gene from Pseudomonas aeruginosa (Amaya (2004) Arch Biochem Biophys 421, 135-142) was cloned into pVER7062 and electroporated into E. coli strain BL21(DE3). The enzyme was produced by methods similar to those described for HPPD. The purified enzyme has a KM for homogentisate of 23 uM and a kcat of 100/sec, properties highly suited for instantly converting the homogentisate produced by HPPD to maleylacetoacetate.
as §2, §3, §4

G. max HPPD = test: ON/OFF rate ratio insensitivity parameters of HPPD with maize motif substitutions; type: biochemical, Glycine max; details: soy HPPD
Protocol: as §1

maize HPPD [3] = test: ON rate ratio, OFF rate ratio and insensitivity parameter with herbicidal HPPD inhibitors; type: biochemical
Excerpt: To devise a parameter for detecting changes in inhibitor binding affinity, KD, one can utilize the relationship between KD and the rates of binding and release of inhibitor to and from the enzyme. [formula] Higher KD (reduced affinity or increased insensitivity) can be attained with a numerically smaller ON rate, a larger OFF rate or both. […] The ratio of the reaction rate with inhibitor to that without inhibitor during the 70 to 90 second interval of the reaction was termed the “ON rate ratio”. […] Incubations with the same concentrations of enzyme but no mesotrione were done in parallel. After 1 hr at room temperature, 5 to 10 ul of the enzyme-inhibitor complex was dispensed into the wells of the assay plate. Reactions were started with the addition of 290 to 295 ul of 25 mM Hepes, pH 7, 2 mM ascorbate, 10 uM FeSO4, 100 uM HPP and 50 nM HGD. The reactions were monitored at 320 nm for 12 min. Reaction velocity accelerates as inhibitor is released from the enzyme until a steady state is reached, during which the reaction velocity is constant. The ratio of the steady state rate in mixtures containing mesotrione (or other herbicidal inhibitor) to the initial velocity of mixtures lacking inhibitor is termed the “OFF rate ratio”. Another parameter to record is the time span required for the reactions with inhibitor to reach the steady state. […] It is not certain that the steady state attained in the OFF rate reactions actually represents an equilibrium where OFF rates are now equal to ON rates. Because substrate and inhibitors bind in the same site, the high concentration of substrate present may competitively trap the inhibitor and prevent it from binding again. To be sure that improvement in ON rates is being taken into account, the ON and OFF rate ratios were multiplied together and the product is termed the “insensitivity parameter”. […] The variants in Table 9 were grouped according to the parameter in which they are improved compared to wild type. The sequence positions are numbered according to the wild-type maize amino acid sequence of SEQ ID 1. Some substitutions are effective in multiple contexts, as discussed in the next section.

maize HPPD [4] = test: KD by isothermal titration calorimetry; type: binding
Protocol: To verify that the insensitivity parameter reflects improvement (elevation) in KD, KD was directly measured with isothermal titration calorimetry. […] Enzymes were transferred to a matrix of 25 mM Hepes, pH 7, 2 mM ascorbate and 10 uM FeSO4 by gel-filtration chromatography. Mesotrione or tembotrione were diluted into the same buffer. Enzyme concentrations in the cell ranged from 100 to 300 uM. Inhibitor concentrations in the syringe were always 8 times that of the cell concentration.

soybean plants = test: Herbicide spray tests of transgenic HPPD soy plants (T1/T2) with multiple HPPD-inhibitor herbicides, visual injury; type: in vivo; details: T1 plants, V1 stage; mesotrione, tembotrione, topramezone, isoxaflutole
Protocol: T1 plants were evaluated for zygosity. Homozygous single-locus transgenic plants and their corresponding null segregants were identified and T2 true breeding seed was obtained from each. Plants were grown to the V1 to V2 growth stage and then sprayed with the commercial formulation of mesotrione, tembotrione, topramezone, and isoxaflutole. All treatments were applied with nonionic surfactant and ammonium sulfate in a spray volume of 374 L/ha. Multiple rates of each herbicide were applied so a response range could be used to compare the relative tolerance of the different herbicides as well as the relative tolerance of homozygous nulls and positives for each event. The herbicide response for individual treated plants was evaluated by comparing to untreated plants of similar genetic background. Herbicide response ratings were eight days after treatment. Visual injury was on a scale of 0 to 100% injury (0=no effect to 100=dead plant).
T1 soybean plants expressing D0223903 (SEQ ID NO: 3) driven by a synthetic promoter (as described in U.S. Pat. No. 6,072,050) were evaluated with qPCR for the presence of the transgene and null and positive segregants selected. Plants were sprayed at the V1 growth stage with the commercial formulations of mesotrione, tembotrione, topramezone, and isoxaflutole. Two rates of each herbicide were applied foliarly with nonionic surfactant and ammonium sulfate in a spray volume of 374 L/ha. The herbicide response for individual plants was determined by comparing to untreated plants of similar genetic background. Visual injury was on a scale of 0 to 100% injury (0=no effect to 100=dead plant).

B1: SEQ ID NO: 394 (protein)
chain: MPPTPTTAAATGAAVAAASAEQAAFRLVGHRNFVRVNPRSDRFHTLAFHHVELWCADAASAAGRFSFGLGAPLAARSDLSTGNTAHASLLLRSGALAFLFTAPYAHGADAATASLPSFSAAEARRFAADHGLAVRAVALRVADAEDAFRASVAAGARPAFEPVELGLGFRLAEVELYGDVVLRYVSYPDDADASFLPGFVGVTSPGAADYGLRRFDHIVGNVPELAPAAAYFAGFTGFHEFAEFTAEDVGTTESGLNSMVLANNAENVLLPLNEPVHGTKRRSQIQTYLDHHGGPGVQHMALASDDVLRTLREMQARSAMGGFEFMAPPAPEYYDGVRRRAGDVLTEAQIKECQELGVLVDRDDQGVLLQIFTKPVGDRPTLFLEIIQRIGCMEKDEKGQEYQKGGCGGFGKGNFSQLFKSIEDYEKSLEAKQAAAAQGS
modifications: Sorghum bicolor
- OFF ratio (S. bicolor HPPD [1]; Mesotrione): 0.199
- ON ratio (S. bicolor HPPD [1]; Mesotrione): 0.227
- ON × OFF Value (S. bicolor HPPD [1]; Mesotrione): 0.045
- OFF ratio (S. bicolor HPPD [1]; Tembotrione): 0.032
- ON ratio (S. bicolor HPPD [1]; Tembotrione): 0.210
- ON × OFF Value (S. bicolor HPPD [1]; Tembotrione): 0.0067
- Km (S. bicolor HPPD [2]): 4.9 µM
- kcat (S. bicolor HPPD [2]): 246

B2: GE010083 (protein)
chain: B1 chain with F232M, V260A, M300I, M326L, A327P, A330L, P331S, R340C, L359M, S416G
modifications: HPPD variant
- OFF ratio (S. bicolor HPPD [1]; Mesotrione): 0.436
- ON ratio (S. bicolor HPPD [1]; Mesotrione): 0.634
- ON × OFF Fold vs wt (S. bicolor HPPD [1]; Mesotrione): 6.13
- ON × OFF Value (S. bicolor HPPD [1]; Mesotrione): 0.277
- OFF ratio (S. bicolor HPPD [1]; Tembotrione): 0.071
- ON ratio (S. bicolor HPPD [1]; Tembotrione): 0.730
- ON × OFF Fold vs wt (S. bicolor HPPD [1]; Tembotrione): 7.71
- ON × OFF Value (S. bicolor HPPD [1]; Tembotrione): 0.0517
- Km (S. bicolor HPPD [2]): 5.35 µM
- kcat (S. bicolor HPPD [2]): 87

B3: SEQ ID NO: 2 (protein)
chain: MAIPMCNEIQAQAQAQAQAQPGFKLVGFKNFVRTNPKSDRFQVNRFHHIEFWCTDATNASRRFSWGLGMPIVAKSDLSTGNQIHASYLLRSGDLSFLFSAPYSPSLSAGSSAASSASIPSFDAATCLAFAAKHGFGVRAIALEVADAEAAFSASVAKGAEPASPPVLVDDRTGFAEVRLYGDVVLRYVSYKDAAPQAPHADPSRWFLPGFEAAASSSSFPELDYGIRRLDHAVGNVPELAPAVRYLKGFSGFHEFAEFTAEDVGTSESGLNSVVLANNSETVLLPLNEPVYGTKRKSQIETYLEHNEGAGVQHLALVTHDIFTTLREMRKRSFLGGFEFMPSPPPTYYANLHNRAADVLTVDQIKQCEELGILVDRDDQGTLLQIFTKPVGDRPTIFIEIIQRIGCMVEDEEGKVYQKGACGGFGKGNFSELFKSIEEYEKTLEAKRTA
modifications: Glycine max
- Km (soybean HPPD): 2 µM
- kcat (soybean HPPD): 83
- OFF ratio (G. max HPPD; Mesotrione): 0.135
- ON ratio (G. max HPPD; Mesotrione): 0.299
- ON × OFF Value (G. max HPPD; Mesotrione): 0.040
- OFF ratio (G. max HPPD; Tembotrione): 0.044
- ON ratio (G. max HPPD; Tembotrione): 0.102
- ON × OFF Value (G. max HPPD; Tembotrione): 0.0044

- Fold vs wt (KD) (maize HPPD [4]; Mesotrione, sites modeled: One): 3.6
- Fold vs wt (KD) (maize HPPD [4]; Mesotrione, sites modeled: Two): 4.9
- Fold vs wt (KD) (maize HPPD [4]; Tembotrione, sites modeled: Two): 7.3
B4: D0223903: shuffled maize HPPD variant, SEQ ID NO: 3; R341C mutation introduced into HPPD D0193494 (protein)
chain: MGPTPTATAAGAAVAAASAAEQAAFRLVGHRNFVRFNPRSDRFHTLAFHHVELWCADAASAAGRFSFALGAPLAARSDLSTGNSAHASLLLRSGSLSFLFTAPYAHGADAATAALPSFSAAAARRFAADHGLAVRAVALRVADAEDAFRASVAAGARPAFGPVDLGRGFRLAEVELYGDVVLRYVSYPDGAAGEPFLPGFEGVASPGAADYGLSRFDHIVGNVPELAPAAAYFAGFTGFHEFAEFTTEDVGTAESGLNSMALANNSENVLLPLNEPVHGTKRRSQIQTFLDHHGGPGVQHIALASDDVLRTLREMQARSAMGGFEFLPPPPSDYYDGVRRCAGDVLTEAQINECQELGVLVDRDDQGVLLQIFTKPVGDRPTFFLEIIQRIGCMEKDEKGQEYQKGGCGGFGKGNFSQLFKSIEDYEKSLEAKQAAAAATAQGS
modifications: HPPD variant
notes: R341C mutation introduced into HPPD D0193494
- Insensitivity parameter (ON rate ratio × OFF rate ratio) relative to that of maize wild-type HPPD (maize HPPD [3]; Isoxaflutole (diketonitrile)): 12.3
- Insensitivity parameter (ON rate ratio × OFF rate ratio) relative to that of maize wild-type HPPD (maize HPPD [3]; Sulcotrione): 3.3
- Insensitivity parameter (ON rate ratio × OFF rate ratio) relative to that of maize wild-type HPPD (maize HPPD [3]; Topramezone): 12.7
- Triple product (ON rate ratio × OFF rate ratio × kcat), relative to that of maize wild-type HPPD (maize HPPD [3]; inhibitor Isoxaflutole (diketonitrile)): 7.7
- Triple product (ON rate ratio × OFF rate ratio × kcat), relative to that of maize wild-type HPPD (maize HPPD [3]; inhibitor Mesotrione): 3.7
- Triple product (ON rate ratio × OFF rate ratio × kcat), relative to that of maize wild-type HPPD (maize HPPD [3]; inhibitor Sulcotrione): 2.1
- Triple product (ON rate ratio × OFF rate ratio × kcat), relative to that of maize wild-type HPPD (maize HPPD [3]; inhibitor Tembotrione): 12.1
- Triple product (ON rate ratio × OFF rate ratio × kcat), relative to that of maize wild-type HPPD (maize HPPD [3]; inhibitor Topramezone): 8.0
- Insensitivity parameter (ON rate ratio × OFF rate ratio) relative to that of maize wild-type HPPD (maize HPPD [3]; mesotrione): 6.0
- Insensitivity parameter (ON rate ratio × OFF rate ratio) relative to that of maize wild-type HPPD (maize HPPD [3]; tembotrione): 19.3
- soybean tolerance to HPPD-inhibitor herbicides (soybean plants): increased soybean tolerance
